Biological target: IFNγR-IL2/IL15R signal converter
Assay: cell-based or functional assay

Chain of IFNγR-IL2/IL15R signal converter (chain, as listed by the source limits assumed, chain 1 of 2): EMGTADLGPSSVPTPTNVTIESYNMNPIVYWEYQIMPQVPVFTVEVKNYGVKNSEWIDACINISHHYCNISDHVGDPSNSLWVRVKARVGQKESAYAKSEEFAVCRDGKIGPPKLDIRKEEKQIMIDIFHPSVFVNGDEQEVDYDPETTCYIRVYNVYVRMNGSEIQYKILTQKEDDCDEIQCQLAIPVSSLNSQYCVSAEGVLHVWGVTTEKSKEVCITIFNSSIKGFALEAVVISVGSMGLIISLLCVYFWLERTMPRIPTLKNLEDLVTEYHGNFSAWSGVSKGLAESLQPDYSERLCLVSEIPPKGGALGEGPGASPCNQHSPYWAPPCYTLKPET
Chain of IFNγR-IL2/IL15R signal converter (chain, as listed by the source limits assumed, chain 2 of 2): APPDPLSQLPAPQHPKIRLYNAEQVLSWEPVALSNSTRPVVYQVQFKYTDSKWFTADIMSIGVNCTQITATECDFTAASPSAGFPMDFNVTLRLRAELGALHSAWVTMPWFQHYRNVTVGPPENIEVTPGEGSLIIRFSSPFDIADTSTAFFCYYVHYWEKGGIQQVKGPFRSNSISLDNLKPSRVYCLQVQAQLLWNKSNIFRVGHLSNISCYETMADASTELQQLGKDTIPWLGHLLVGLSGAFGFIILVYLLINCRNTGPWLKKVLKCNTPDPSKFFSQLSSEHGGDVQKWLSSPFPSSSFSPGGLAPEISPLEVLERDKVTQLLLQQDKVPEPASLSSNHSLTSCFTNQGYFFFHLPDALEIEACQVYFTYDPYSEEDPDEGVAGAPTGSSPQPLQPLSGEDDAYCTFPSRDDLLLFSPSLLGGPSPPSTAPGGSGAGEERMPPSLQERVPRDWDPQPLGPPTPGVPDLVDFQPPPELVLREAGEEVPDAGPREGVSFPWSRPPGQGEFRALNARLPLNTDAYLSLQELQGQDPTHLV

“IFN-γ (from UniProt P01579 24-166) (ligand)” gave a cell proliferation (Tag-it violet cell tracking staining), 6 days under IFN-γ treatment of 40% and a percentage of proliferation (flow cytometry, Tag-it Violet), 6 days, 5 ng/mL IFN-γ of 42.3%.

From patent publication US20250290040A1
